From article PMC7461574

Biological target: non-glycosylated wild-type PAI-1 (PAI-1-wt) (human) (UniProt P05121)
UniProt P05121, sequence (P05121 24-402): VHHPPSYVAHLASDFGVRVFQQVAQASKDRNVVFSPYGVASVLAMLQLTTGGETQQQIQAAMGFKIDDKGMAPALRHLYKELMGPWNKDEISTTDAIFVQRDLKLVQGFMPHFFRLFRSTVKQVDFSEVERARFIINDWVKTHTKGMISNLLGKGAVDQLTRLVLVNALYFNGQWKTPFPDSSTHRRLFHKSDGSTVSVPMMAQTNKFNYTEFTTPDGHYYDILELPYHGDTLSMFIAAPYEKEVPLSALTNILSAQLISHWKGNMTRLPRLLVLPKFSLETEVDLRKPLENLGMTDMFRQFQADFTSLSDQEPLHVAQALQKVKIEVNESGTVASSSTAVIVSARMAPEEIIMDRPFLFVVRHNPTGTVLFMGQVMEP

IC50 of inhibition of PAI-1-wt activity, chromogenic plasminogen-coupled assay with tPA (residual tPA activity; pair blocked: PAI-1/tPA), Nb93 1 to 512 nM: 202 nM
maximum inhibition of PAI-1-wt activity, chromogenic plasminogen-coupled assay with tPA (pair blocked: PAI-1/tPA), Nb93 1 to 512 nM: 55%
B1: VHH-s-a93 (Nb93) (VHH)
VHH: QVQLVESGGGLVQPGGSLRLSCAASGFSLDNYAIGWFRQAPGKEREGVSCISSSDGSTYYTDSVEGRFTISRDNAKNTVYLQMNSLKPDDTAVYYCAADYGSSWCTFNGMDYWGQGTQVTVSS
